In publication doi:10.1101/2023.02.01.526556:
Where no end group is shown, it is not given here.

How the values were obtained:
[1] = target: AkFaNaC W167Y (Aplysia kurodai)
[2] = target: AkFaNaC W167F (Aplysia kurodai)

FMRF-NH2 [FMRFamide] was tested. Which EC50 of the FMRFamide-gated Na+ current (COVC, Xenopus oocytes) [1] did it give?
Its EC50 of the FMRFamide-gated Na+ current (COVC, Xenopus oocytes) is greater than 100 µM.

And the EC50 of the FMRFamide-gated Na+ current (COVC, Xenopus oocytes) [2]?
Its EC50 of the FMRFamide-gated Na+ current (COVC, Xenopus oocytes) is greater than 100 µM.
